Molecular target: DNA polymerase theta helicase domain (Polθ-hel, residues 1–894) (human), O75417
Test: cryo-EM structure
Settings: remark: other sources report otherwise

percent of particles in the dimeric form: 95%
percent of particles in the tetrameric form: 5%
B1: DNA polymerase theta helicase domain (Polθ-hel, residues 1–894), O75417 1-894 (domain or fragment)
chain: MNLLRRSGKRRRSESGSDSFSGSGGDSSASPQFLSGSVLSPPPGLGRCLKAAAAGECKPTVPDYERDKLLLANWGLPKAVLEKYHSFGVKKMFEWQAECLLLGQVLEGKNLVYSAPTSAGKTLVAELLILKRVLEMRKKALFILPFVSVAKEKKYYLQSLFQEVGIKVDGYMGSTSPSRHFSSLDIAVCTIERANGLINRLIEENKMDLLGMVVVDELHMLGDSHRGYLLELLLTKICYITRKSASCQADLASSLSNAVQIVGMSATLPNLELVASWLNAELYHTDFRPVPLLESVKVGNSIYDSSMKLVREFEPMLQVKGDEDHVVSLCYETICDNHSVLLFCPSKKWCEKLADIIAREFYNLHHQAEGLVKPSECPPVILEQKELLEVMDQLRRLPSGLDSVLQKTVPWGVAFHHAGLTFEERDIIEGAFRQGLIRVLAATSTLSSGVNLPARRVIIRTPIFGGRPLDILTYKQMVGRAGRKGVDTVGESILICKNSEKSKGIALLQGSLKPVRSCLQRREGEEVTGSMIRAILEIIVGGVASTSQDMHTYAACTFLAASMKEGKQGIQRNQESVQLGAIEACVMWLLENEFIQSTEASDGTEGKVYHPTHLGSATLSSSLSPADTLDIFADLQRAMKGFVLENDLHILYLVTPMFEDWTTIDWYRFFCLWEKLPTSMKRVAELVGVEEGFLARCVKGKVVARTERQHRQMAIHKRFFTSLVLLDLISEVPLREINQKYGCNRGQIQSLQQSAAVYAGMITVFSNRLGWHNMELLLSQFQKRLTFGIQRELCDLVRVSLLNAQRARVLYASGFHTVADLARANIVEVEVILKNAVPFKSARKAVDEEEEAVEERRNMRTIWVTGRKGLTEREAAALIVEEARMILQQDLVEM
